Measurements as given in the nanobody polyreactivity screen of Harvey et al. (2022).

Assay: yeast display, Sf9 membrane polyspecificity reagent, FACS + sequencing; frameworks hold sequencing errors
Summary of the method: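 A nanobody's polyreactivity label depends on the gate it was sorted from. Yeast display cells were stained with 10% biotinylated, detergent-solubilized Sf9 membrane reagent for 1 hour at 4 °C, enriched on streptavidin microbeads and sorted by FACS. The low and high (top ~1%) gates were set on anti-HA fluorescence for expression and streptavidin fluorescence for reagent binding.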

Row | Sequence | polyreactivity (PSR sort gate)
1 | QVQLVESGGGLVQAGGSLRLSCAASGRTLVRNVMGWYRQAPGKERELVAAISRSGGSTYYADSVKGRFTISRDNAKNTVYLQMNSLKPEDTAVYYCAAATKSNGAPIFDSWGQGTQVTVSS | high polyreactivity
2 | QVQLVESGGGLVQAGGSLRLICAASGRIFTYNAMGWYRQAPGKERELVARITSGGNTNYADSVKGRFTISRDNAKNTVYLQMNSLKPEDTAVYYCATGLFWFTNRYGSWGQGTQVTVSS | low polyreactivity
3 | QVQLVESGGGLVQAGGSLRLSCAASGYIFYFYAMGWYRQAPGKERELVAAITSVGSTKYADSVKGRFTISRDNAKNTVYLQMNSLKPEDTAVYYCAARRWRSYYYWGQGTQVTVSS | high polyreactivity
4 | QVQLVESGGGLVQAGGSLRLSCAASGSTFVVYAMGWYRQAPGKERELVAAISSSGGSTYYADSVKGRFTISRDNAKNTVYLQMNSLKPEDTAVYYCAAGSRFVSSRLYYWGQGTQVTVSS | high polyreactivity
5 | QVQLVESGGGLVQAGGSLRLSCAASGSTFHFYAMGWYRQAPGKERELVASITSRGGNTHYADSVKGRFTISRDNAKNTVYLQMNSLKPEDTAVYYCAARGGWYGTYDYWGQGTQVTVSS | low polyreactivity
6 | QVQLVESGGGLVQAGGSLRLSCAASGSIFAYNAMGRYRPAPGKERELVAAITSDDSTNYADSVKGSFTISRDNAQNTVYLQMNSLKPEDTAVYDCAAYYYYTYIIGYDYCGQGTQVTVSS | low polyreactivity
7 | QVQLVESGGGLVQAGGSLRLSCAASGRTFVYYDMGWYRQAPGKERELVASISSGDSTNYADSVKGRFTISRDNAKNTFYLQMNSLKPEDTAVYYCAAQYSWGHYYTFDYWGLGTQVTVSS | low polyreactivity
8 | QVHLVESGGGLVQAGGSLRLRCAASGRIFPSNAMGWYRQAPWKERELVAGITWRRDSTYYADSVKGRFTISRDKAKNTVYLQMNSLKPEDTAVYYCAATFRYTKLYYWGQGTQVTVSS | low polyreactivity
9 | QVQLVESGGGLVQAGGSLRLSCAASGSISKINAMGWYRQAPGKERELVAAINTGDSTYYADSVKGRFTISRDNAKNTVYLQMNSLKPEDTAVYYCAAEGSPNGYDYWGQGTQVTVSS | low polyreactivity
10 | QVQLVESGGGLVQAGGSLRLSCAASGRIFQDNAMGWSRQAPGNERELVAAISKSGGITYYADSVKGRFTISRDNAKNTVYLQMNSLKPEDTAVYNCAAVWSRFLISYSTGWWFEYWGQGTQVTVSS | low polyreactivity
11 | QVQLVESGGGLVQAGGSLRLSCAASGSTFERYAMGWYRQAPGKERELVAAITWGGGSTNYADSVKGRFTISRDNAKNTVYLQMNSLKPEDTAVYYCAREWRTRIYYYWGQGTQVTVSS | low polyreactivity
12 | QVQLVESGGGLVQAGGSLRLSCAASGFTFTQYGMGWYRQAPGKEREFVATIRFSGDNTYYADSVKGRFTISRDNAKNTVYLQMNSLKPEDTAVYYCNADNRAFFVYPVSKRYDSWGQGTQVTVSS | low polyreactivity
13 | QVQLVESGGGLVQAGRTLRLSCAASGFTFYYNAMGWYRQAPGKERELVATITGSTYYADSVKGLFTISRDNATYSVYLQMNSLKPEDTAVYYCTADASLVLAEYDYWGQGTQVTVSS | low polyreactivity
14 | QVQLVESGGGLVHAGGSLRISCAASGRIFYKYAMAWYRQAPGKERELVAAISTRGGSTYYADSVKWRFTISRDIAKNTVYSQMNSLKPEDTAVYYCAALSAYGYDYCGQGTQVTVSS | high polyreactivity
15 | QVQLVESGGGLVQAGGSLRLSCAASGRILIPYAMGWYRQAPGKEREFVAGITGSGGRTYYADSVKGRFTISRDNAKNTVYLQMNSLKPEDTAVYYCDAVYYYSPTMYYWGQGTQVTVSS | low polyreactivity
16 | QVQLVESGGGLVQAGGSLRLSCAASGFTFTGNAMGWYRQAPGKERELVAAITSGTSTYYADSVKGRFTISRDNAKNTVYLQMNSLKPEDTAVYYCAKEYPLDGRGSDYCGQGTQVTVSS | low polyreactivity
17 | QVQLVESGGGLVQAGGSLRLSCAASGRIFVRNVMGWYRQAPGQERELVARITSGGSTNYADSVKGRFTISRDNAKNTVYLQINSLKPEDTAVYYCAAQGRHYHRTSTGYDYWGQGTQVTVSS | high polyreactivity
18 | QVQLVESGGGLVQAGGSLRLSCAASGITFETYAMGWYRQAPGKERELVAAITYSGGRTYYADSVKGRFTISRDNAKNTVYLQMNSLKPEDTAVYYCNARKYVGFWSRYDYWGQGTQVTVSS | high polyreactivity
19 | QVQHVESGGGLVQAGGSLRLSCSASGFTFYSYAMGWYRQAPGTERELLAVISKRGGSTRYADSVKGRFTISRDNAKNSVYFQMNSLKPEDTAVYYCNADQHSMTYNEFDYWGQGTQVTVSS | low polyreactivity
20 | QVQLVESGGGLVQAGGSLRLSCAATGSTYKYYAMGWYRQAPGKERELVAAITKSGGRTYYSDSVKGRLTISRDNAKNTVYLQMNSLKPEDTAVYYCATVTSHVDDEFDYWGQGTQVTVSS | high polyreactivity
21 | QVQLVESGGCLVQAGGSLRLSCAASGRTFAYYAMGWYRQAPGKERELVAAITRGGSTYYADSVKGRFTISRDNAKNTVYLQMNSLKPEDTAVYYCAADTSPYQDDYWGQGTQVTVSS | low polyreactivity
